# Results as given in the Immune Epitope Database (IEDB).
# How the values were obtained:
# HLA-A*24:02 [1] = test: IEDB peptide-MHC binding, purified MHC/competitive/fluorescence; ≥ and ≤ were set here for values at or beyond the usual limits of such assays
# HLA-A*23:01 = test: IEDB peptide-MHC binding, purified MHC/competitive/radioactivity; filed as Kd, often an IC50 or EC50 that approximates it; ≥ and ≤ were set here for values at or beyond the usual limits of such assays
# HLA-A*30:02 = test: as above
# HLA-A*29:02 = test: as above
# HLA-A*01:01 = test: as above
# HLA-A*24:02 [2] = test: as above
# HLA-A*26:01 = test: as above
# HLA-B*44:02 = test: as above
# HLA-B*44:03 = test: as above
# HLA-B*07:02 = test: as above
# HLA-B*15:01 = test: as above
# HLA-B*40:01 = test: as above
# HLA-A*68:02 = test: as above
# HLA-B*51:01 = test: as above
# HLA-A*02:01 = test: IEDB peptide-MHC binding, purified MHC/competitive/fluorescence; ≥ and ≤ were set here for values at or beyond the usual limits of such assays; settings: source organism: Vaccinia virus
# HLA-A*11:01 = test: IEDB peptide-MHC binding, purified MHC/competitive/radioactivity; filed as Kd, often an IC50 or EC50 that approximates it; ≥ and ≤ were set here for values at or beyond the usual limits of such assays; settings: source organism: Triticum aestivum
# HLA-A*03:01 = test: as above; settings: source organism: Triticum aestivum
# HLA-A*33:01 = test: as above; settings: source organism: Triticum aestivum
# HLA-A*68:01 = test: as above; settings: source organism: Triticum aestivum
# HLA-A*31:01 = test: as above; settings: source organism: Triticum aestivum
# [3] = source organism: Sudan ebolavirus
# [4] = source organism: SARS coronavirus Tor2
# [5] = source organism: Mammarenavirus brazilense
# [6] = source organism: Dengue virus 3 Martinique/1243/1999
# [7] = source organism: Mammarenavirus juninense
# [8] = source organism: Dengue virus 1 Brazil/97-11/1997
# [9] = source organism: Dengue virus 2 Jamaica/1409/1983
# [10] = source organism: Dengue virus 4 Philippines/H241/1956
# [11] = source organism: Dengue virus 1 Singapore/S275/1990
# [12] = source organism: Zaire ebolavirus
# [13] = source organism: Vaccinia virus
# [14] = source organism: Mammarenavirus lassaense
# [15] = source organism: Triticum aestivum
# [16] = source organism: Lymphocytic choriomeningitis virus (strain Armstrong)
# [17] = source organism: Mammarenavirus whitewaterense
sequence,measurement,setting,value
NRKAIDFLL,IC50,HLA-A*24:02 [1]; [3],≥ 72.4 µM
NYMPYVFTLL,Kd,HLA-A*23:01; [4],0.00111 µM
same,Kd,HLA-A*30:02; [4],2.55 µM
same,Kd,HLA-A*29:02; [4],0.128 µM
same,Kd,HLA-A*01:01; [4],≥ 40.5 µM
same,Kd,HLA-A*24:02 [2]; [4],0.00103 µM
same,Kd,HLA-A*26:01; [4],≥ 69.7 µM
PKAQREIFS,IC50,HLA-A*24:02 [1]; source organism: Variola virus,30.1 µM
PYLKATKQI,Kd,HLA-A*23:01; [5],0.131 µM
same,Kd,HLA-A*29:02; [5],≥ 78.9 µM
same,Kd,HLA-A*24:02 [2]; [5],0.564 µM
QTWMSAEGAW,Kd,HLA-B*44:02; [6],11.9 µM
QWFFDLPLPW,Kd,HLA-B*44:03; [6],2.64 µM
same,Kd,HLA-A*23:01; [6],0.0147 µM
same,Kd,HLA-A*24:02 [2]; [6],0.0748 µM
QWSLFFFVY,Kd,HLA-A*23:01; [4],≥ 77.8 µM
same,Kd,HLA-A*30:02; [4],1.37 µM
same,Kd,HLA-A*29:02; [4],0.0134 µM
same,Kd,HLA-A*01:01; [4],8.06 µM
same,Kd,HLA-A*24:02 [2]; [4],≥ 44.4 µM
same,Kd,HLA-A*26:01; [4],17.6 µM
RCWLIKNNSY,Kd,HLA-A*23:01; [7],≥ 70 µM
same,Kd,HLA-A*30:02; [7],0.00991 µM
same,Kd,HLA-A*29:02; [7],≥ 29.1 µM
same,Kd,HLA-A*01:01; [7],≥ 30.6 µM
same,Kd,HLA-A*24:02 [2]; [7],≥ 70.3 µM
same,Kd,HLA-A*26:01; [7],≥ 69.7 µM
RPGYFTQTA,Kd,HLA-B*07:02; [8],0.00478 µM
RQMEGEGVL,Kd,HLA-B*15:01; [6],0.0188 µM
same,Kd,HLA-B*40:01; [6],0.0435 µM
RSNAALGAIF,Kd,HLA-B*15:01; [9],0.0411 µM
same,Kd,HLA-A*30:02; [9],3.42 µM
same,Kd,HLA-B*07:02; [9],0.184 µM
RSTSLSVSLV,Kd,HLA-A*68:02; [9],0.253 µM
SEAVNDSRF,Kd,HLA-B*44:03; [10],0.0666 µM
same,Kd,HLA-B*44:02; [10],0.0179 µM
SEMIIPKIYG,Kd,HLA-B*44:03; [11],0.0188 µM
same,Kd,HLA-B*44:02; [11],0.00953 µM
SPMLYQLLE,IC50,HLA-A*24:02 [1]; source organism: Vaccinia virus Copenhagen,64.6 µM
SPSVEVKLPD,Kd,HLA-B*07:02; [10],0.205 µM
SVNMISRMLI,Kd,HLA-A*68:02; [9],0.236 µM
SYSLFDMSKF,Kd,HLA-A*23:01; [4],0.0497 µM
same,Kd,HLA-A*30:02; [4],0.77 µM
same,Kd,HLA-A*29:02; [4],0.677 µM
same,Kd,HLA-A*01:01; [4],≥ 25.1 µM
same,Kd,HLA-A*26:01; [4],6.12 µM
SYYATSYLE,IC50,HLA-A*24:02 [1]; [3],4.36 µM
TEMGRLPTF,Kd,HLA-B*44:03; [9],0.024 µM
same,Kd,HLA-B*44:02; [9],0.01 µM
TFSIPLGVI,IC50,HLA-A*24:02 [1]; [12],0.0849 µM
TKKNLTRKI,IC50,HLA-A*24:02 [1]; [12],≥ 155 µM
TPEAKNSTFL,Kd,HLA-B*07:02; [10],1.37 µM
TPEGEVGAIA,Kd,HLA-B*07:02; [8],14.7 µM
TPKGTVMDII,Kd,HLA-B*07:02; source organism: Dengue virus 3 Singapore/8120/1995,0.608 µM
TPQASTTEAI,Kd,HLA-B*07:02; [6],0.0453 µM
same,Kd,HLA-B*51:01; [6],≥ 22.9 µM
TRAADEPPL,IC50,HLA-A*02:01,≥ 1400 µM
same,IC50,HLA-A*24:02 [1]; [13],≥ 169 µM
TTANISLTAI,Kd,HLA-A*68:02; [8],0.0008 µM
VEDEEFWKL,Kd,HLA-B*40:01; source organism: Dengue virus 3 Sri Lanka/1266/2000,0.0181 µM
VERAVLDDGI,Kd,HLA-B*40:01; [8],1.68 µM
VPFCSHHFHQ,Kd,HLA-B*07:02; [8],≥ 20.9 µM
same,Kd,HLA-B*51:01; [8],≥ 69.6 µM
VPVHLCNLI,Kd,HLA-A*23:01; [14],3.17 µM
same,Kd,HLA-A*30:02; [14],≥ 47.9 µM
same,Kd,HLA-A*29:02; [14],≥ 78.9 µM
same,Kd,HLA-A*01:01; [14],≥ 78.1 µM
same,Kd,HLA-A*24:02 [2]; [14],5.7 µM
same,Kd,HLA-A*26:01; [14],≥ 77.9 µM
VVLQQHSIAY,Kd,HLA-A*11:01,1.64 µM
same,Kd,HLA-A*03:01,2.34 µM
same,Kd,HLA-A*33:01,≥ 70 µM
same,Kd,HLA-A*23:01; [15],≥ 25.9 µM
same,Kd,HLA-A*68:01,≥ 24.9 µM
same,Kd,HLA-A*30:02; [15],5.39 µM
same,Kd,HLA-A*29:02; [15],1.04 µM
same,Kd,HLA-A*01:01; [15],≥ 70.4 µM
same,Kd,HLA-A*31:01,≥ 70 µM
same,Kd,HLA-A*24:02 [2]; [15],≥ 39.9 µM
same,Kd,HLA-A*26:01; [15],≥ 69.7 µM
VYFESFVREF,Kd,HLA-A*23:01; [16],0.00889 µM
same,Kd,HLA-A*29:02; [16],0.184 µM
same,Kd,HLA-A*24:02 [2]; [16],0.0597 µM
WEGSPGKFW,Kd,HLA-B*44:03; [8],0.0535 µM
same,Kd,HLA-B*44:02; [8],0.0244 µM
WYMWLGARFL,Kd,HLA-A*23:01; [9],0.0491 µM
same,Kd,HLA-A*24:02 [2]; [9],0.00633 µM
YCNYSKFWY,Kd,HLA-A*23:01; [16],14.6 µM
same,Kd,HLA-A*30:02; [16],1.29 µM
same,Kd,HLA-A*29:02; [16],1.03 µM
same,Kd,HLA-A*01:01; [16],≥ 21.2 µM
same,Kd,HLA-A*24:02 [2]; [16],≥ 23.5 µM
same,Kd,HLA-A*26:01; [16],≥ 77.9 µM
YENLKYSVI,Kd,HLA-B*44:02; [8],0.0902 µM
YFPREGVFVF,Kd,HLA-A*23:01; [4],0.00575 µM
same,Kd,HLA-A*30:02; [4],≥ 78.9 µM
same,Kd,HLA-A*29:02; [4],0.00723 µM
same,Kd,HLA-A*01:01; [4],≥ 70.4 µM
same,Kd,HLA-A*24:02 [2]; [4],0.00735 µM
same,Kd,HLA-A*26:01; [4],17.2 µM
YLLFGIKCI,IC50,HLA-A*24:02 [1]; [13],7.15 µM
YPALMPLY,Kd,HLA-B*07:02; source organism: Hepatitis B virus,≥ 10 µM
YYGLVTEQF,Kd,HLA-A*23:01; [17],0.00147 µM
same,Kd,HLA-A*29:02; [17],0.0955 µM
same,Kd,HLA-A*24:02 [2]; [17],0.00327 µM
